From article PMC3074123

Experiments:
EndA(H160G/R127A/K128A) = EndA(H160G/R127A/K128A) (Streptococcus pneumoniae, UniProt P0A3S3 31-274, H160G;R127A;K128A); experiment: EMSA
EndA(H160G/R209A/K210A) = EndA(H160G/R209A/K210A) (Streptococcus pneumoniae, UniProt P0A3S3 31-274, H160G;R209A;K210A); experiment: EMSA

B1: 24 bp duplex (dsDNA)
DNA 1: GCAAGGTGCGTGCAGCCTTGGACC
DNA 2: GGTCCAAGGCTGCACGCACCTTGC
**Q.** Does B1 bind (EndA(H160G/R127A/K128A))?
**A.** Result: no binding

**Q.** Does B1 bind (EndA(H160G/R209A/K210A))?
**A.** Result: no binding
